Read-outs that look alike come from different tables or passages of the source.
B1: 1-Arm (designed binder)
LCB1 mini-binder coupled to a DNA handle that is hybridised to one arm of a 3-helix-bundle DNA nanostructure: DKEWILQKIYEIMRLLDELGHAEASMRVSDLIYEFMKKGDERLLEEAERLLEEVER
B2: 2-Arm (designed binder)
LCB1 mini-binder coupled to a DNA handle that is hybridised to an arm of a 3-helix-bundle DNA nanostructure: B1 LCB1 mini-binder coupled to a DNA handle that is hybridised to one arm of a 3-helix-bundle DNA nanostructure
B3: Tri-pdbody (designed binder)
LCB1 mini-binder coupled to a DNA handle that is hybridised to an arm of a 3-helix-bundle DNA nanostructure: B1 LCB1 mini-binder coupled to a DNA handle that is hybridised to one arm of a 3-helix-bundle DNA nanostructure
notes: also called 3-Arm; 3arm

How the values were obtained:
Spike Delta [1] = biological target: Spike Delta (SARS-CoV-2)
Spike Delta [2] = biological target: T1, Spike Delta (SARS-CoV-2); test: SPR, Delta spike as solid phase [panel C]
T1 construct: also called Delta spike; delta spike protein

| Binder | Kd (Spike Delta [1]) | Kd (Spike Delta [2]) |
| --- | --- | --- |
| B1 | 0.14 nM | – |
| B2 | 0.14 nM | – |
| B3 | 0.1 nM | 0.216 nM |

Reference: patent publication US20250222126A1 (ARIZONA BOARD OF REGENTS ON BEHALF OF ARIZONA STATE …, published 2025)
